Results as given in patent US20140143908A1.

T1: N-terminal truncated OsT6PP-D56NT
T1 chain: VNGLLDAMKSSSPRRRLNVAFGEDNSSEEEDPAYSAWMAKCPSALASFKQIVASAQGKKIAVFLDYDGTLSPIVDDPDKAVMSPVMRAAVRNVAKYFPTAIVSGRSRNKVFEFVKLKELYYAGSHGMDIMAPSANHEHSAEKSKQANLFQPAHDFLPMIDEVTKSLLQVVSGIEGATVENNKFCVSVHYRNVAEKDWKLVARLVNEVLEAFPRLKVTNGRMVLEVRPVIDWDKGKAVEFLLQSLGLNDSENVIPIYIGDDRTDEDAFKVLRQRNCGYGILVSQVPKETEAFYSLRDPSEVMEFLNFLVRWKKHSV

T2: Oryza sativa trehalose-6-phosphate phosphatase, wild type (OsT6PP-WT)
T2 chain: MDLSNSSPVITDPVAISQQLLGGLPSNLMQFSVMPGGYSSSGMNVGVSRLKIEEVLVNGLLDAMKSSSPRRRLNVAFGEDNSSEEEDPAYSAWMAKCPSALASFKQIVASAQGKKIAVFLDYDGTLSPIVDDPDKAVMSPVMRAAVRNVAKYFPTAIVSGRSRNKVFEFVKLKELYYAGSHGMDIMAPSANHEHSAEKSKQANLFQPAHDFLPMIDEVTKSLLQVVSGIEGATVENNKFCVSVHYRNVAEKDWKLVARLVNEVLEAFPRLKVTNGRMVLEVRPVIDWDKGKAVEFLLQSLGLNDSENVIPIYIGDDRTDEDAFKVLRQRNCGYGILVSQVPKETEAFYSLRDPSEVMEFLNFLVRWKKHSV


Key:
[1] = target: T1, N-terminal truncated OsT6PP-D56NT
[2] = target: T2, Oryza sativa trehalose-6-phosphate …
[3] = target: Oryza sativa trehalose-6-phosphate phosphatase, wild type (OsT6PP-WT) (Oryza sativa) (UniProt Q75WV3); experiment: cell-based or functional assay

Trehalose formed (µM), 20 min, mixture of OsT6PP-WT (1 µg/ml) and OsT6PP-H244D (10 µg/ml); WT alone 25.3, H244D alone 1.1 [3] [µM] | Trehalose formed (µM), 40 min, mixture of OsT6PP-WT (1 µg/ml) and OsT6PP-H244D (10 µg/ml); WT alone 33.6, H244D alone 4.6 [3] [µM] | Trehalose formed (µM), 60 min, mixture of OsT6PP-WT (1 µg/ml) and OsT6PP-H244D (10 µg/ml); WT alone 36.8, H244D alone 5.9 [3] [µM] | Binder | fold increase of T6PP activity [1] | T6PP activity, trehalose formed (µM), 20 min, OsT6PP-WT (1 µg/ml) with 0.5 µg/mL OsT6PP-H244D; WT alone 28.7 [2] [µM] | T6PP activity, trehalose formed (µM), 20 min, OsT6PP-WT (1 µg/ml) with 1 µg/mL OsT6PP-H244D; WT alone 28.7 [2] [µM] | T6PP activity, trehalose formed (µM), 20 min, OsT6PP-WT (1 µg/ml) with 2 µg/mL OsT6PP-H244D; WT alone 28.7 [2] [µM] | T6PP activity, trehalose formed (µM), 20 min, OsT6PP-WT (1 µg/ml) with 5 µg/mL OsT6PP-H244D; WT alone 28.7 [2] [µM] | T6PP activity, trehalose formed (µM), 20 min, OsT6PP-WT (1 µg/ml) with 10 µg/mL OsT6PP-H244D; WT alone 28.7, H244D alone 2.2 [2] [µM] | T6PP activity, trehalose formed (µM), 20 min, OsT6PP-WT (1 µg/ml) with 20 µg/mL OsT6PP-H244D; WT alone 28.7, H244D alone 6.2 [2] [µM] | fold increase of T6PP activity [2] | trehalose 6-phosphate phosphatase activity (in vitro) [2]
89.5 | 155 | 220 | Oryza sativa trehalose-6-phosphate phosphatase single modification H244D (OsT6PP-H244D) (protein) MDLSNSSPVITDPVAISQQLLGGLPSNLMQFSVMPGGYSSSGMNVGVSRLKIEEVLVNGLLDAMKSSSPRRRLNVAFGEDNSSEEEDPAYSAWMAKCPSALASFKQIVASAQGKKIAVFLDYDGTLSPIVDDPDKAVMSPVMRAAVRNVAKYFPTAIVSGRSRNKVFEFVKLKELYYAGSHGMDIMAPSANHEHSAEKSKQANLFQPAHDFLPMIDEVTKSLLQVVSGIEGATVENNKFCVSVDYRNVAEKDWKLVARLVNEVLEAFPRLKVTNGRMVLEVRPVIDWDKGKAVEFLLQSLGLNDSENVIPIYIGDDRTDEDAFKVLRQRNCGYGILVSQVPKETEAFYSLRDPSEVMEFLNFLVRWKKHSV | a 1.7 fold increase in T6PP activity was observed when N-terminal truncated OsT6PP-D56NT was mixed with OsT6PP-H244D | 34.9 | 40.1 | 52.3 | 71.7 | 77.7 | 101 | An approximately 3-fold increased T6PP activity was observed when OsT6PP-WT was assayed in presence of OsT6PP-H244D | Increased trehalose 6-phosphate phosphatase activity (in vitro) of OsT6PP-WT is observed in the presence of its catalytically inefficient variants, including OsT6PP-H244D, OsT6PP-H244S and OsT6PP-S242E
– | – | – | OsT6PP-S242E (protein) MDLSNSSPVITDPVAISQQLLGGLPSNLMQFSVMPGGYSSSGMNVGVSRLKIEEVLVNGLLDAMKSSSPRRRLNVAFGEDNSSEEEDPAYSAWMAKCPSALASFKQIVASAQGKKIAVFLDYDGTLSPIVDDPDKAVMSPVMRAAVRNVAKYFPTAIVSGRSRNKVFEFVKLKELYYAGSHGMDIMAPSANHEHSAEKSKQANLFQPAHDFLPMIDEVTKSLLQVVSGIEGATVENNKFCVEVHYRNVAEKDWKLVARLVNEVLEAFPRLKVTNGRMVLEVRPVIDWDKGKAVEFLLQSLGLNDSENVIPIYIGDDRTDEDAFKVLRQRNCGYGILVSQVPKETEAFYSLRDPSEVMEFLNFLVRWKKHSV | – | – | – | – | – | – | – | – | Increased trehalose 6-phosphate phosphatase activity (in vitro) of OsT6PP-WT is observed in the presence of its catalytically inefficient variants, including OsT6PP-H244D, OsT6PP-H244S and OsT6PP-S242E
– | – | – | OsT6PP-H244S (protein) MDLSNSSPVITDPVAISQQLLGGLPSNLMQFSVMPGGYSSSGMNVGVSRLKIEEVLVNGLLDAMKSSSPRRRLNVAFGEDNSSEEEDPAYSAWMAKCPSALASFKQIVASAQGKKIAVFLDYDGTLSPIVDDPDKAVMSPVMRAAVRNVAKYFPTAIVSGRSRNKVFEFVKLKELYYAGSHGMDIMAPSANHEHSAEKSKQANLFQPAHDFLPMIDEVTKSLLQVVSGIEGATVENNKFCVSVSYRNVAEKDWKLVARLVNEVLEAFPRLKVTNGRMVLEVRPVIDWDKGKAVEFLLQSLGLNDSENVIPIYIGDDRTDEDAFKVLRQRNCGYGILVSQVPKETEAFYSLRDPSEVMEFLNFLVRWKKHSV | – | – | – | – | – | – | – | – | Increased trehalose 6-phosphate phosphatase activity (in vitro) of OsT6PP-WT is observed in the presence of its catalytically inefficient variants, including OsT6PP-H244D, OsT6PP-H244S and OsT6PP-S242E
